Measurements taken from paper PMC3059804.
Like-named read-outs stand apart in the source and are kept apart here.

Legend:
Assay in all cases: enzyme inhibition kinetics
[1] = target: human LSD1-CoREST complex (LSD1 residues 171-836 with CoREST residues 308-440) (human) (UniProt O60341)
[2] = target: human LSD1-CoREST complex (LSD1 residues 171-836 with CoREST residues 308-440) (human) (UniProt O60341); remark: listed apart in the source
[3] = target: recombinant mouse LSD2 (mouse) (UniProt Q8CIG3)
[4] = target: human LSD1-CoREST complex (LSD1 residues 171-836 with CoREST residues 308-440) (human) (UniProt O60341); remark: listed apart in the source

Ki [1]: 220 µM
Ki [2]: 200 nM
Ki [3]: 2220 nM
Ki [4]: 210 µM
Substance: 20-residue peptide corresponding to the N-terminal residues of human SNAIL1
